Broadly, the Kd is the free concentration of one partner at which half of the binding sites on the other are occupied at equilibrium, for simple one-to-one binding. The low end stands for a tighter complex, the high end for a looser complex.

Two substances from paper PMC6593972 can be followed below.

The assay concerns the target fluorescein isothiocyanate (FITC)-casein. Put plainly: fluorescence polarisation; fluorescence anisotropy; FITC-casein 100 nM, ClpB (WT or mutant) varied; Reaction buffer, 10 min at 30°C, 2 mM ATP; black 384 well plates; Kd by nonlinear regression. Background: Polarisation of emitted light reports the rotation of a fluorescent probe.

fluorescein isothiocyanate (FITC)-casein, sequence (P02662 16-214): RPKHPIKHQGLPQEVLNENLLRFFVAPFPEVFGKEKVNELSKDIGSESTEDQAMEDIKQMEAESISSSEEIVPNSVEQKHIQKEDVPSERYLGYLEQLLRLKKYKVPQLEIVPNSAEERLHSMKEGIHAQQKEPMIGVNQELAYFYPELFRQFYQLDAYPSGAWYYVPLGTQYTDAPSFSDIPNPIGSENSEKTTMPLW
ClpB wild-type, sequence (P63284 whole entry): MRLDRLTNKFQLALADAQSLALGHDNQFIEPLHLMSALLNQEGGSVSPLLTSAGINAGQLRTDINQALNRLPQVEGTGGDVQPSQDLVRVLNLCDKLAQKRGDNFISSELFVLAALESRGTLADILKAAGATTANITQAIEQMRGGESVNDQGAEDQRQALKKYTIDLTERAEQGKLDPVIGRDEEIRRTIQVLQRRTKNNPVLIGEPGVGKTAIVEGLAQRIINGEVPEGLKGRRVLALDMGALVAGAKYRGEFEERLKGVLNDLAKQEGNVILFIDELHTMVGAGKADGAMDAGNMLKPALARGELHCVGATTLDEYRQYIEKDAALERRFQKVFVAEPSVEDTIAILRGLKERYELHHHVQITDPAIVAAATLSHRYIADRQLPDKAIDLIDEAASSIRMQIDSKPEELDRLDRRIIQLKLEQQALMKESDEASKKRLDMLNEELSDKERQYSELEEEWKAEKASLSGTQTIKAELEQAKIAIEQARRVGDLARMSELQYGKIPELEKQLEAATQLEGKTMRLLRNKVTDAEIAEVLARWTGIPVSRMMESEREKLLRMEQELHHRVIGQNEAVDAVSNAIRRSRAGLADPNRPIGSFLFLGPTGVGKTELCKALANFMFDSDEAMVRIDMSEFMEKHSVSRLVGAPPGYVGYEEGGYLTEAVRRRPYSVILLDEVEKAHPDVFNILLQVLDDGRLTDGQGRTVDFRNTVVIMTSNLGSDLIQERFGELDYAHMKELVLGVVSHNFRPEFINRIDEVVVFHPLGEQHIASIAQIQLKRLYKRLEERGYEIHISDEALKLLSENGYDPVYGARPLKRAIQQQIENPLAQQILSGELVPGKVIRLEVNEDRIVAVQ

Substance “ClpB wild-type (from UniProt P63284 1-857) (natural protein)” yielded a dissociation constant (Kd) of 330 nM. To “ClpB-K476C (from UniProt P63284 1-857) (natural protein)” belongs 220 nM.
